# According to doi:10.1101/2020.11.03.367284:
# How the values were obtained:
# [1] = target: GSU0105, triheme c-type cytochrome from Geobacter sulfurreducens, with C-terminal Factor Xa-cleavable His-tag (Geobacter sulfurreducens); assay: SAXS
# [2] = target: GSU0105, triheme c-type cytochrome from Geobacter sulfurreducens, with C-terminal Factor Xa-cleavable His-tag (Geobacter sulfurreducens); assay: pull-down
Substance,stoichiometry N [1],Kd [2] [µM]
"GSU0105, triheme c-type cytochrome from Geobacter sulfurreducens, with C-terminal Factor Xa-cleavable His-tag (natural protein)",4,–
"PpcD, triheme cytochrome c7 from Geobacter sulfurreducens (natural protein)",–,< 10
